Source: US20250092148A1 (Kyowa Kirin, published 2025)

Tests used:
[1] = biological target: T1, human CD131 W163A (human, UniProt P32927 17-897); experiment: flow cytometry, Fab on HEK-293T cells expressing the mutant; labels of this column stand one row too low, mutant assigned after shifting them up (text: W163 is an epitope residue)
T1 construct: whole, on cells
T1 sequence (looked up): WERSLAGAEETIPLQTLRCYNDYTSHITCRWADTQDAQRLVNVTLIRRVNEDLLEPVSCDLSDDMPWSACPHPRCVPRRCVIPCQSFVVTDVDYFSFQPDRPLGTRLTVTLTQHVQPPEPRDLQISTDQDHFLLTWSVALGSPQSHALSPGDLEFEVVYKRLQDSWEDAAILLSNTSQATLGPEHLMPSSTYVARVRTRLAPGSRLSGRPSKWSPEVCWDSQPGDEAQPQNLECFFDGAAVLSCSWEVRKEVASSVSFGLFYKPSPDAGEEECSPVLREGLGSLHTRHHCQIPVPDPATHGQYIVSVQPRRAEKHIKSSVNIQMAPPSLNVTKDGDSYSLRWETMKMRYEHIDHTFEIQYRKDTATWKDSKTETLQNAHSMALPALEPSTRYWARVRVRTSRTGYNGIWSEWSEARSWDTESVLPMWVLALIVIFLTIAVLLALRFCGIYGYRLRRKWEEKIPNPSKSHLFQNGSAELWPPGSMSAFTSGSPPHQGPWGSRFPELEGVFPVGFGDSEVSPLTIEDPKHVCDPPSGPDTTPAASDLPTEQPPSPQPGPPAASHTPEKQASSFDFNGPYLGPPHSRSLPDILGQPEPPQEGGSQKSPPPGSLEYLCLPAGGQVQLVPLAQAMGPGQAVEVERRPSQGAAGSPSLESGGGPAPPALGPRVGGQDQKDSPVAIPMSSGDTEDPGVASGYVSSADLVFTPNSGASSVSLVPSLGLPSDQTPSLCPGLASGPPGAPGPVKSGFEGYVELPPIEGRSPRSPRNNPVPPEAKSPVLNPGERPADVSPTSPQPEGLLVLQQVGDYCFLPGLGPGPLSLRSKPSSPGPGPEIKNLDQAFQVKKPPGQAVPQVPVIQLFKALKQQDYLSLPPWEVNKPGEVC

[2] = biological target: T2, human CD131 G198A (human, UniProt P32927 17-897); experiment: flow cytometry, Fab on HEK-293T cells expressing the mutant; labels of this column stand one row too low, mutant assigned after shifting them up
T2 construct: whole, on cells
T2 sequence (looked up): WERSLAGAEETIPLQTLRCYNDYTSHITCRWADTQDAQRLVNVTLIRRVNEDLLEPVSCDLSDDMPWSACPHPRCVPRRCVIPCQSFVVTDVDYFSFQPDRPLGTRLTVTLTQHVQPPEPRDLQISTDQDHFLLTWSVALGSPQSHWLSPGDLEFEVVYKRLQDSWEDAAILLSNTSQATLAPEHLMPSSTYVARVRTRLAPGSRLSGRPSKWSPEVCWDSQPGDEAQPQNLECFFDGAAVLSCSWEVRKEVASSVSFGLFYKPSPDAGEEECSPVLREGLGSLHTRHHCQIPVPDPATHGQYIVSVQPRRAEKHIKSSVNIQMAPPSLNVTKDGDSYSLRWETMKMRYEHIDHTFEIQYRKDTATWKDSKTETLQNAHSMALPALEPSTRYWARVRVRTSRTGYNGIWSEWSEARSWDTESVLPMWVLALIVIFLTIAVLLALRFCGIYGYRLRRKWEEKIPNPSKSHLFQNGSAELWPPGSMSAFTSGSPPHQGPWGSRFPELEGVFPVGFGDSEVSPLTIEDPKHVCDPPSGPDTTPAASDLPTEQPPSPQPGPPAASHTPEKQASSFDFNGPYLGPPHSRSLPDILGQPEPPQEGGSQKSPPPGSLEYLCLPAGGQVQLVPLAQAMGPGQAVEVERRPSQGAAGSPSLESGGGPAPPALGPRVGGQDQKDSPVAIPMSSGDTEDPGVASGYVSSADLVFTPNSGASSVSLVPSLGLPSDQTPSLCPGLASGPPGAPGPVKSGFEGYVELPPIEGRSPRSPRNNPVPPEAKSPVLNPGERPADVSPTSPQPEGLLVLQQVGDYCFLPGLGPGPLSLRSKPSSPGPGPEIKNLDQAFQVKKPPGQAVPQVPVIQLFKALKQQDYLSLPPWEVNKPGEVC

[3] = biological target: T3, human CD131 D146A (human, UniProt P32927 17-897); experiment: as above
T3 construct: whole, on cells
T3 sequence (looked up): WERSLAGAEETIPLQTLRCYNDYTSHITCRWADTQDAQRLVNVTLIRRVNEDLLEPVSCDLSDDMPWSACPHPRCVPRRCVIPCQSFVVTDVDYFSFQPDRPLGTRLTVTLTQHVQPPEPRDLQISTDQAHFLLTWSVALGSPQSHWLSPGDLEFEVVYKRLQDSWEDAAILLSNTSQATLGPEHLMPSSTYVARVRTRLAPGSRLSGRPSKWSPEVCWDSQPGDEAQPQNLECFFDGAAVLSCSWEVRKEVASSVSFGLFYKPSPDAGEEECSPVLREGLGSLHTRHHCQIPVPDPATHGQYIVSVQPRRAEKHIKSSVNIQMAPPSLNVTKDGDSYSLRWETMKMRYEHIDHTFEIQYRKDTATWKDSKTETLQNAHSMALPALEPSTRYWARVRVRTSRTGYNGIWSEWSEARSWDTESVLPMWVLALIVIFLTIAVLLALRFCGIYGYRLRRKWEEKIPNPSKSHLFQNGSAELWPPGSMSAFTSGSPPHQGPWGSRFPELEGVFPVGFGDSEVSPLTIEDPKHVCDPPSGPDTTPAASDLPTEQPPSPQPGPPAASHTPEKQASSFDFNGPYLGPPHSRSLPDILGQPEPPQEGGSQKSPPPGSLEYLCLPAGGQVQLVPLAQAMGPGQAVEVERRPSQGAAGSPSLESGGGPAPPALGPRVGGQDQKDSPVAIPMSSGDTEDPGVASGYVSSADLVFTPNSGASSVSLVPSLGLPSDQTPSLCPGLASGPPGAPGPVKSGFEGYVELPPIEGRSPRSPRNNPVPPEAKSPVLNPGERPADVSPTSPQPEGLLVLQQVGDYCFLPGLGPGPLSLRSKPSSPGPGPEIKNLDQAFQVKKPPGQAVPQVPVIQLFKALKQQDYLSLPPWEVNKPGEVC

B1: anti-CD131 antibody 131-B2, Fab (Fab, V domains shown)
VH: QVQLVQSGAEVKEPGASVKISCKASGYTFTNDYMHWVRQAPGQGLEWMGIINPTGGGTSYAQKFRGRVTMTRDTSTSTVYMELSSLRSEDTAVFYCARERYYGSGTYFNIGLWYFDLWGRGTLVTVSS
VL: not shown
notes: Fab made from the antibody by an enzyme treatment
Binding Reactivity (% WT) [1]: -9 % WT
Binding Reactivity (% WT) [2]: 194 % WT
Binding Reactivity (% WT) [3]: 88.4 % WT
